Experimental data taken from the nanobody polyreactivity screen of Harvey et al. (2022).

Assay: yeast display, Sf9 membrane polyspecificity reagent, FACS + sequencing; frameworks hold sequencing errors
Outline: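 Nanobodies from a synthetic yeast display library (Saccharomyces cerevisiae BJ5465), induced 36–48 hours with galactose, were stained 1 hour at 4 °C with 10% biotinylated, detergent-solubilized Sf9 membrane reagent, enriched on streptavidin microbeads, then FACS-sorted. Anti-HA (expression) and streptavidin (reagent binding) fluorescence set low and high (top ~1%) gates. Polyreactivity labels come from the gate of origin. Genes were colony-PCR amplified, MiSeq 2 × 250 sequenced and filtered by CDR length.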
For “QVPLVESGGGLVQAGGSLRLSCSASGIIFNAYTMGWYRQAPGKESELVAAITTAGSTHYADSVKGRFTISRDNAKNTVYLQMNSLKPEDTAVYYCNADTPVGKYAHLACYQDYDDWGQGTQVTVSS”, the “polyreactivity (PSR sort gate)” value was “low polyreactivity”.
In the case of “QVPLVESGGGLVQAGGSLSLTCAASGRNLKYYDMGWYRQAPGKERELVAAISVSGTSTYYADSVKGRFTISRDNAKNTVYLQMNSLKPEDTAVYYCATATGRYSFDYWGQGTQVTLSS”, the “polyreactivity (PSR sort gate)” value is reported as “low polyreactivity”.
With “QVPLVESVGGLVQAGGSLRLSCAASGLTFWRYAMGWYRQAPGKEREFVAAISSGGSTNYADSVKGRFTISRDNAKNTVYLQMNSLKPEDTAVYYCNARYYHKRSTRVIFPYDYWGQGTQVTVSS” the “polyreactivity (PSR sort gate)” value was “high polyreactivity”.
For “QVPLVESVGGLVQAGGSLRLSCAASGSTFLSNAMGWYRQAPGKERELVASINWIGGSTRYADSVKGRFTISRDNAKNTVYLQMNSLKPEDTAVYYCASRRRWGGHGAFLYYYWGQGTQVTVSS”, the “polyreactivity (PSR sort gate)” value was “high polyreactivity”.
In the case of “QVQHEESGGGLDQAGGSLRLSSASSGTIFYGCYMGWYRQARGKEREMVATISWSSGSSTYYADSVKGRFTISRDNANNSVYLQMNILKPEDTAVYYCAVDFAIGYRYLCRVDYWGQGTQVTVSS”, the “polyreactivity (PSR sort gate)” value is reported as “low polyreactivity”.
For “QVQHEESGGGLVQAGASLRLSCAPSGRILLYNAMGCYRQAPGKERELVAAISSTGGRTYYADSVKGRFTISRDNAKNTFYLQMNSLKPEDTAVYYCAADYYWSLHQRMDYWGQGTQVTVSS”, the “polyreactivity (PSR sort gate)” value was “high polyreactivity”.
With “QVQHEESGGGLVQAGGSLRLSCAASGFTFFSNAMGWFRQAPGKERELVAAITTNGGSTYYADSVKGRFTISRDNAKNTVYLQMYSLKPEDTAGYYCAAEYGITDYDYWGQGTQVTVSS” the “polyreactivity (PSR sort gate)” value was “low polyreactivity”.
For “QVQHEESGGGLVQAGGSLRLSCAASGLTFYPYAMGWYRQATGKESELVAGISASGGGTSYADSVKGRFTISRDNAKNTVYLQMNSLKPEDTAVYYCAATPTFFVWQGYNYWGQGTQVTVSS”, the “polyreactivity (PSR sort gate)” value was “low polyreactivity”.
In the case of “QVQHEESRRGLVQAGVSLRLRCAASGYTFRVYLMGCYRQAPGKERELVAAITYSGGRTYYADSVKGRFTISRDNAKNTVYLQMNSLKPVDTAVYYCAAERPWYGRDRGFDYWGQGTQVTVSS”, the “polyreactivity (PSR sort gate)” value is reported as “high polyreactivity”.
For “QVQHGESGGGLVQAGGSLRLSCAASGTTLAAYTMGWYRQAPGKERELVAAINSGGGTNYADSVKGRFTISRDNAKNTVYLQMNSLKPEDTAVYYCAKVVFVRGAPGYYWGQGTQVTVSS”, the “polyreactivity (PSR sort gate)” value was “high polyreactivity”.
In the case of “QVQHLESGGGLVQAGGSLRLSCAASAITFDHYAMGWYRQAPGKEREFVAAIDDIGGDTYYPDSVKGRFTSSRDNAKNNVYLQMNSVQPEDTAVYDCNADGEGADSDYEYWGQGNQVTVSS”, the “polyreactivity (PSR sort gate)” value is reported as “low polyreactivity”.
In the case of “QVQHLETGGGLDQAGGSLRLSCAASVRTFGANAMAWYRQAPGNERALVAAITGRGGSTYYADSVKGRFTFSRDNAKNTVYLQMNSLKPEDTAVYYCAKPFKRGYGYDYWGQGTQVTVSS”, the “polyreactivity (PSR sort gate)” value is reported as “low polyreactivity”.
For “QVQHVDSGGGLVQAGGSLLLSCAASGFTFRTYAMGWYRQAPGKEREFVAAITTSGGSTYYADSVKGRFTISRDNAKNTVYLQMNSLKPEDTAVYYCAAKKATVVYRMEYWGQGTLVTVSS”, the “polyreactivity (PSR sort gate)” value was “high polyreactivity”.
With “QVQHVDSGGGLVQAGGSLRLSCAASGSSFGTYDMGWYRQAPGKERELVARISGGGSTYYADSVKGRLTISRDNAKNTVYFQMNRLKPEDTAVYYCNVRKWAYWSHAFIYTYWGQGTQVTVSS” the “polyreactivity (PSR sort gate)” value was “high polyreactivity”.
In the case of “QVQHVDSGGGLVQAGGSLRLSCSASGINFPWYAMGWYRQAPGKERELVAAITSGGSTYYADSVKGRFTISRDNAKNTVYLEMYSLKPEDTAVYYCNADYYSWYLGAYLYDYWGQGTQVTVSS”, the “polyreactivity (PSR sort gate)” value is reported as “high polyreactivity”.
With “QVQHVDTGGGLVQAGGSLRLSCAASGSIFGRYAMGWSRQAPGKERELVASINWNSGSTYYADSVKGRFTISRDNAKYTVYLQMNSLKPEDTAVYYCAAAALGYYGYRGFDYWGQGTQVTVSS” the “polyreactivity (PSR sort gate)” value was “low polyreactivity”.
In the case of “QVQHVESAGGLVQAGGSLRLSCAASGGIFWVYAMGWSRQAPGTERELVAAISNSDTSTSYADSVKGRFTISRDNAKNTVYLQMNSLKPEDTAVYYCNAVSPSLSGDYWGQGTQVTVSS”, the “polyreactivity (PSR sort gate)” value is reported as “low polyreactivity”.
With “QVQHVESAGGLVQAGGSLRLSCAASGRIFYVNAMGWYRPAPGKERQLVAAIRSAVGTYYADSVKGRFTISRDNAKNTVYLQMNSLKPEDTAVYYCNADASFREYRFYLIEMDYWGQGTKVTVSS” the “polyreactivity (PSR sort gate)” value was “high polyreactivity”.
With “QVQHVESAGGLVQAGGSLRLSCAASGSTFSDYAMGRYRQAPGKERELVAAISRSGGSTYYADSVKGRFTISRDNAKNTVYLQMNSLKPEDTAVYYCAASRATLLRYGYWGQGTQVTVSS” the “polyreactivity (PSR sort gate)” value was “low polyreactivity”.
For “QVQHVESCGGLDQAGGSLRLSCAASGRTFKYYTMGWYRQAPGKQREFVAAISTGGSTHYADSVKGRFTISRDNAKNTVYLQMNSLKPEVTAVSYCAAGCVLWVRDPQGRASYYWGQGTHVTVSS”, the “polyreactivity (PSR sort gate)” value was “high polyreactivity”.
With “QVQHVESGAGLVQAGGSLRLRCAASGIIFYYYAMGWYRQAPGKERELVASISRSGTDTYYADSVKGRFTISRDNAKYTVYLQMNSLIPEDTAVYDCAAKLYSKRTGARMNYWGQGTQVTVSS” the “polyreactivity (PSR sort gate)” value was “high polyreactivity”.
With “QVQHVESGAGLVQAGGSLRLSCAASGRIFSRYAMGWYRQAPGKERELVAAISERGASTYYADSVKGRFTISRDNAKNTVYLQMNSLKPEDTAVYYCAAKRGSGYGYWGQGTQVTVSS” the “polyreactivity (PSR sort gate)” value was “high polyreactivity”.
In the case of “QVQHVESGGALVQAGGSHRLSCAASGLTIWRYAKGWYRLATGKERELVAAINYNGVRTYYADSVKGRFTISRDNAKNTVYLQMNSLKQEDTAVYYCAAKPGYYGYWGQGTQVTVSS”, the “polyreactivity (PSR sort gate)” value is reported as “high polyreactivity”.
For “QVQHVESGGCLVQAGGSLRLSCAASGSIFSYYDMGWYRHAPGKERELVAAIRGSGGITYADSVKGRFTISRDNAKNTVYLQMNSLKPEETAVYYCAADQYYRSDYYYWGQGTQVTVSS”, the “polyreactivity (PSR sort gate)” value was “low polyreactivity”.
In the case of “QVQHVESGGCLVQAGGSLRLSCAASGYTFRYYAMGWYRQAPGKERELVAAINWSGCSTYYADSVKGRFTISRDNAKNTVYLHMNSLKPEDTAVYYCAADPDGDVDIDYDYWGQGTQVTVSS”, the “polyreactivity (PSR sort gate)” value is reported as “low polyreactivity”.
For “QVQHVESGGCLVQAGGSLRLSCASSGRTFARYAMGWSRQPPGKDSELVAAITRRGGSTYYADSVKGRFTLSRDNAKNTVSLQMNSLKPEDTAVYYCAAHYRNFGIGAYEYWGKGTQVTVSS”, the “polyreactivity (PSR sort gate)” value was “high polyreactivity”.
With “QVQHVESGGGIVQAGGSLRLSCAASGIIFIGNAMGWYRQAPGKERELVAAITYTGGSTYYADSVKGRFTISRDNAKNTVYLQMNSLKPEDTAVYYCAVDRTHLEDDYWGQGTQVTVSS” the “polyreactivity (PSR sort gate)” value was “low polyreactivity”.
For “QVQHVESGGGIVQAGGSLRLSCAASGIIFSDYAMGWYRQARGKERELVATITRSVRTSYADSVKGRFTISRDNAKNTVYLQMNSLKPEDTAVYYCYADVVGAVIAYDYWGQGTQVTVSS”, the “polyreactivity (PSR sort gate)” value was “low polyreactivity”.
In the case of “QVQHVESGGGIVQAGGSLRLSCAASGLTITAYVMGWYRQAPGKERELVAAIRNSGGSTYYADSVKGRFTISRDNAKNTVYLQMISLKPEDTAVYYCAKQTSYWSRGYDYWGQGTQVTVSS”, the “polyreactivity (PSR sort gate)” value is reported as “low polyreactivity”.
With “QVQHVESGGGLDQAGGSLRLSCAASGFTFVFNAMGWYRQAPGKERELVATITNGGSTYYADSVKGRFTISRDNAKNTVYLQMNSLKPEDTAVYYCAKTWFAYRDYDFWGQGTQVTVSS” the “polyreactivity (PSR sort gate)” value was “high polyreactivity”.
With “QVQHVESGGGLDQAGGSLRLSCAASGRIFYANAMGWYRQAPRKERELVAAIDWSGGSTYYADSVKGRFTISRDNAKNTVYLQMNSLKPEDTAVYYCAGPYHYYGNSVGYADYVYWGQGTQVTVSS” the “polyreactivity (PSR sort gate)” value was “low polyreactivity”.
In the case of “QVQHVESGGGLLQAGGSLRLSCAASVSTLSKNAMGWYRQAPGKERELVAAITRRGGSTSYADSVKGRFTISRDNAKNTVYFQMNSLKPEDTAVYYCNAVSKYDYGYWGQGTQVTVSS”, the “polyreactivity (PSR sort gate)” value is reported as “high polyreactivity”.
With “QVQHVESGGGLLQAGGSLRLTCTASRSIFPYYAMGWYRQATGKERELVAAISSSGARTYYADSVKGRFTISRDNAKNTVYLQMNSLKPEDTGFYYCNSDTIRYRTYGRYAWYNYWGQGTQVTVSS” the “polyreactivity (PSR sort gate)” value was “high polyreactivity”.
With “QVQHVESGGGLVHAGGSLRLSCAASGSTFRPYPRGWSRQAPGKERELVAAIRKIGGRTYYADSVKGRFTISRDNAKNTVYLQMNSLKPEDTAVYYCNKRIGGGVHAYNYWGQGTQVTVSS” the “polyreactivity (PSR sort gate)” value was “low polyreactivity”.
For “QVQHVESGGGLVQAGCSLRLSCAASGLIFGLYAMGWFRPAPGKERELVAAISYRTDSTYADSVKGRFTISRDNAKNTVYLQMNSLKPEDNAVYYCAADLRVSVRYYYWGHGTQVTVSS”, the “polyreactivity (PSR sort gate)” value was “low polyreactivity”.
For “QVQHVESGGGLVQAGGRLRLSCAASGIIFQYYAMGSYRQAPGKERESVAGITYPGGSTYYADSVKGRFTISRDNAKNTVYLPKNSLQPEDTAVYFCNAVGVSARYWRQLPSYRYDYWGQGTQVTVSS”, the “polyreactivity (PSR sort gate)” value was “low polyreactivity”.
With “QVQHVESGGGLVQAGGSHRLSCAASGRIFPWNTMGRYRQAPGKERELVAGITSGGSTNYADSVKGRFTISRDNAKNTVYLQMKSLKPEDTAVYYCNRDSVGYDYWGQGTQVTVSS” the “polyreactivity (PSR sort gate)” value was “low polyreactivity”.
For “QVQHVESGGGLVQAGGSHRLSSAASGSTFRGYVMGWYRQAPGKERELVAVITTSDGDTYYADSVKGRFTNSRDNAKNTVYLQMNSLKPEDTAVYYCNADLYSYYGDNYWGQGTQVTVSS”, the “polyreactivity (PSR sort gate)” value was “low polyreactivity”.
For “QVQHVESGGGLVQAGGSLLLSSAASGRTFLVNAMGWNRQAPGKEREFVAAITSRSGRTNYADSVKGRFTISRDTAKNNVYLQMNSLKPEDTAVYYCNAEGYTVKYWYSRYDYWGQGTQVTVSS”, the “polyreactivity (PSR sort gate)” value was “high polyreactivity”.
With “QVQHVESGGGLVQAGGSLRIRCAASGSIFDLNAMGWYRPAPGKEMELVAASSSGGGTYYADSVKGRFTISRDNAKKTVYLLMISLKPEDTALSDCNRVTRWTYNYWGQGSQVTVSS” the “polyreactivity (PSR sort gate)” value was “high polyreactivity”.
In the case of “QVQHVESGGGLVQAGGSLRLICAASGSTFGYNAMGWYRHAPGKERELVARITSSGGATYYADSVKWRFTISRDNAKHTVYLLKNSLKPEDTAVYYCAAGYPYRAVYRYYYWGQGTQVTVSS”, the “polyreactivity (PSR sort gate)” value is reported as “high polyreactivity”.
